Assay results reported in PMC2132604.

Biological target: p130^Cas, endogenous in CHO cells (Chinese hamster (endogenous in CHO))
Assay: co-IP

- reduction of association relative to wild-type FAK (densitometry): 50%
Substance: FAK P712/715A double point mutant, epitope-tagged, expressed from pCDM8-P712/715A in CHO cells (from UniProt Q00944 1-1053) (enzyme)
